Substrate in series [1]: NC(=O)c1ccc[n+]([C@@H]2O[C@H](COP(=O)(O)OP(=O)(O)OC[C@H]3O[C@@H](n4cnc5c(N)ncnc54)[C@H](OP(=O)(O)O)[C@@H]3O)[C@@H](O)[C@H]2O)c1
Nature of the series: purified protein. Type of series: biochemical, Ureibacillus thermosphaericus. To be noted: oxidative deamination, meso-DAP as co-substrate, carbonate-KOH pH 10.5, 50 °C, varied: cofactor.

Substrate in series [2]: N[C@H](CCC[C@H](N)C(=O)O)C(=O)O
Briefly: purified protein. Type of series: biochemical, Ureibacillus thermosphaericus. To be noted: oxidative deamination, NADP as co-substrate, carbonate-KOH pH 10.5, 50 °C.

B1: meso-DAPDH (meso-diaminopimelate dehydrogenase) (Ureibacillus thermosphaericus) (protein)
chain: SKIRIGIVGYGNLGRGVEAAIQQNPDMELVAVFTRRDPKTVAVKSNVKVLHVDDAQSYKDEIDVMILCGGSATDLPEQGPYFAQYFNTIDSFDTHARIPDYFDAVNAAAEQSGKVAIISVGWDPGLFSLNRLLGEVVLPVGNTYTFWGKGVSQGHSDAIRRIQGVKNAVQYTIPIDEAVNRVRSGENPELSTREKHARECFVVLEEGADPAKVEHEIKTMPNYFDEYDTTVHFISEEELKQNHSGMPHGGFVIRSGKSDEGHKQIIEFSLNLESNPMFTSSALVAYARAAYRLSQNGDKGAKTVFDIPFGLLSPKSPEDLRKELL
notes: native, purified from U. thermosphaericus A1 cells; gene encodes 326 residues; homodimer about 80 kDa, subunit about 40 kDa; N-terminus SKIRIGIVGY (initiator Met removed)
In the case of B1, the Km (usually the substrate concentration at which the rate is half of its maximum) is reported as 0.13 mM in “purified protein [1]” and 1.6 mM in the series “purified protein [2]”.

These data come from publication PMC3293039, “Highly stable meso-diaminopimelate dehydrogenase from an Ureibacillus thermosphaericus strain A1 isolated from a Japanese compost: purification, characterization and sequencing” (AMB Express, 2011).
